Measurements from patent publication US20070004628A1 (SALK INSTITUTE FOR BIOLOGICAL STUDIES, published 2007).

Target: T1, p75 (endogenous, mouse) (Mus musculus, UniProt Q9Z0W1 32-427)
T1 construct: Endogenous p75 of P7 mouse cerebellum and of cerebellar granule neurons; also called p75NTR
T1 sequence: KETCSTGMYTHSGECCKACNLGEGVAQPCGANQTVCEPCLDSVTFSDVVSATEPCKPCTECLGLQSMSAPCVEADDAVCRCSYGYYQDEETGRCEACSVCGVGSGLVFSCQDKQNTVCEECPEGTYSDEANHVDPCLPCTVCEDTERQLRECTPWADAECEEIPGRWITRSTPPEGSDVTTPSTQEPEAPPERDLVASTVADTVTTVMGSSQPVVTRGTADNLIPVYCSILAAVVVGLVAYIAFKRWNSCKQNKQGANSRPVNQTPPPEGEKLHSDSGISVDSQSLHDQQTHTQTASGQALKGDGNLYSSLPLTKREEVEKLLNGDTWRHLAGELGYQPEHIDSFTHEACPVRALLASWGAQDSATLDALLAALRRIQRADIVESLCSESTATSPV
Assay: immunoprecipitation of P7 mouse cerebellar proteins with anti-p45 antibodies, immunoblot with anti-p75 antibodies

binding result: binds
B1: full-length p45 (p45-FL) (receptor)
chain: MLYNVSKGVVYSDTALQGQDGDREGMWVGAGGALAPNTSSLFPPEPPGASSNIIPVYCALLATVILGLLAYVAFKCWRSHKQRQQLAKARTVELGDPDRDQRRGDSNVFVDSPPSLEPCIPSQGPHPDLGCQLYLHIPQQQQEEVQRLLMMGEPAKGWQELAGHLGYQAEAVETMACDQMPAYTLLRNWAAQEGNRATLRVLEDALAAIGREDVVQVLSSPAESSSVV
notes: Untagged full-length p45 expressed in HEK293 cells or from transfected capped RNA in CGNs; Also used here for endogenous p45 of P7 mouse cerebellum; also called PLAIDD; NRADD
